Experimental findings from the DeepSol protein solubility set are described below.

This data set in a line: soluble on expression in E. coli; label from the status in PepcDB or PDB records.
On to “MNVNRLLIVGAGAFGREVHAWLLDWVKLNPGWVIAGFINDGPGSIARFDHYPAVVSSVEGYEPGPEDYLVCAIAKPADKRLVVEKLLGKGARFFTLIHPSVIMGENVVIGQGAVICPSTVLSVDLRIGAFVTLNIGCLVGHDADIGDFSTLSGHCDITGGVVLEEEVFMGTHASVLPNVKVGKQAVVGAGSVAIRNVAAGITVFGVPAKRISGLEHHHHHH”, for which the “soluble on expression in E. coli” value was “not soluble”.
In the case of “MNVRNGKASTLRTNDVEPIKDSFSILIIGVDTSTTRASNGNPRSDSLILATFNVKDARVEMTSIPRDSYVHIEDSAKEINKYTKINAAHAYGGPELTMKTVEEEFKIPIDYYVRFDFDAFLKIIDALDGIDVDVPVNFTEQDSKDNQNAITLKKGPQHLNAEQALALARTRHIDSDIERGKRQQLIIKSIVSEATSVSSVSKYSDIIEVVGDNMKTNLTFNQMLSIAKFGMSNKIDIKSLNLKGDSNPMNGIYYYKLNESSVQSISNEFASELGIKQPFPGAAAYSDESSTASNLEHHHHHH”, the “soluble on expression in E. coli” value is “soluble”.
“MNYLLIDTSNQPLSVAIMKDNEVIAEKTTDIKKNHSVQLMPEIAEILTESKINKTEITDIVVAEGPGSYTGLRIGVTVAKTLAYALNTNLYGVSSLKALASTVKDSTKLLVPIFDARREAVYAGVYQYQDNELITIIDDTYIPIFELIEKLHQLNQPYVFVGFHIEKIKHLLDSDIVEQLPQASSMKQLIQKPENIHSFTPKYHKLSEAERNWLNQQENNLEHHHHHH”: the “soluble on expression in E. coli” value is on record as “not soluble”.
The result for “MNYNIRGENIEVTPALKDHVERKIGKLERYFDHSVDADVNVNLKFYNDKESKVEVTIPMTDLALRSEVHNEDMYNAIDLATNKLERQIRKHKTKVNRKFREQGSPKYLLANGLGSDTDIAVQDDIEEEESLDIVRQKRFNLKPMDSEEAILQMNMLGHNFFVFTNAETNLTNVVYRRNDGKYGLIEPTELEHHHHHH” reads “soluble”; that for “MPANKLVALTFDDGPDNVLTARVLDKLDKYNVKATFMVVGQRVNDSTAAIIRRMVNSGHEIGNHSWSYSGMANMSPDQIRKSIADTNAVIQKYAGTTPKFFRPPNLETSPTLFNNVDLVFVGGLTANDWIPSTTAEQRAAAVINGVRDGTIILLHDVQPEPHPTPEALDIIIPTLKSRGYEFVTLTELFTLKGVPIDPSVKRMYNSVPLEHHHHHH”, “soluble”.
The result for “MPAVQETIRQVREIDVDQYKYGFETKIKTDKAPKGLNEDIIRFISAKKCEPEWMLKWRLQAFRRWLTMQEPDWARIEYPKIDFQELHYYAAPKNHTGPKSLEEVDPELLATYEKLGIPLKEQEILAGVRKQSDPSTFDESVYASGQVAVDAVFDSVSVVTTFKKELARAGVIFCSISEAIIEHPALINQYLGTVVPVGDNYYAALNAAVFTDGSFVYIPKGVRCPMELSTYFRINERNTGQFERTLIIADEDSYVSYLEGCTAPQRDENQLHAAVVELVALKNAEIKYSTVQNWYPGDKEGNGGIYNFVTKRGDCRGDNSKISWTQIETGSAITWKYPSCLLRGDNSRGEFYSIAVANGHQQIDSGTKMIHLGKNTSSRIVSKGISAGFSNNTYRGQVTAHRKAHNARNFTQCDSLLIGNDCGAHTVPYIEAKNATAQFEHEATTSKISDDQLFYVMQRGIPEEEAIALIVNGFVKEVIQKLPMEFAVEAQKLIGISLEGSVG” reads “not soluble”; that for “MPDEKDKHEGTWLQWPHEYTYGEEYKKEVEPIWVKMASALTEGEKVHIVAYDQEEKERINNLLTDEGLNMEKIDFFIAPTDDVWARDSGPIFVYDSNKNLKILDPAFNGWGKKTPYKNDAQIRKNVSKQSGIERVDWGKFVLEGGAIELDSNGTALLTRSAVTNKNRNPDLSEKEIEKYISDLGVSNFIWLDGVPNLDITDFHIDGFAKFHNKSTIVTMKEDDLAEWGLSNKDMDTLLDAKNASGQKYKYEYLPLSKEKVALENGKTLDYKGSYINYYIGNTVVLVPNYNDPNDKIANDTIQKLYPDRKVVGIDVRELYKNGGMIHCVTQQQPIALKMAGDPLEHHHHHH”, “soluble”.
Next, “MPESIFKQISLDILKLHRDSVYSLLATSGCNCQVHEAAYVNIDGKYYIALSCEPEVGEVKTGILLIEDESRNLRLSWVGSARELDCKDNAYKRALSALSRKLGRCKDRLHTAVQPFLLELVPEKGRFSVGDEEVWISRNDLVRALYPVGYSMRQAVFQI”: “not soluble”.
